Results as given in ChEMBL document CHEMBL4680222, “Sensitive fluorogenic substrates for sirtuin deacylase inhibitor discovery” (Eur J Med Chem, 2020).

Tests used:
[1] = test system: CC(=O)N[C@@H](CC(C)C)C(=O)NCC(=O)N[C@@H](CO)C(=O)N[C@@H](CCCCNC(=O)CCC(=O)O)C(=O)Nc1ccc2c(C)cc(=O)oc2c1; assay: (§1) Substrate activity at human N-terminal His-tagged SIRT5 (34 to 302 residues) expressed in Escherichia coli assessed as Kcat measured after 1 hr in presence of NAD+ and trypsin by Michaelis-Menten kinetic model based fluorescence assay
[2] = test system: CC(=O)N[C@@H](CO)C(=O)N[C@@H](CC(C)C)C(=O)NCC(=O)N[C@@H](CCCCNC(=O)CCC(=O)O)C(=O)Nc1ccc2c(C)cc(=O)oc2c1; assay: as §1
[3] = test system: CC(=O)N[C@@H](Cc1cnc[nH]1)C(=O)N[C@@H](Cc1ccccc1)C(=O)N[C@@H](CO)C(=O)N[C@@H](CCCCNC(=O)CCC(=O)O)C(=O)Nc1ccc2c(C)cc(=O)oc2c1; assay: as §1
[4] = test system: Cc1cc(=O)oc2cc(NC(=O)[C@H](CCCCNC(=O)CCC(=O)O)NC(=O)OCc3ccccc3)ccc12; assay: as §1
[5] = test system: CC(=O)N[C@@H](CC(C)C)C(=O)NCC(=O)N[C@@H](CO)C(=O)N[C@@H](CCCCNC(=O)CCC(=O)O)C(=O)Nc1ccc2c(C)cc(=O)oc2c1; assay: (§2) Substrate activity at human N-terminal His-tagged SIRT5 (34 to 302 residues) expressed in Escherichia coli assessed as ratio of Kcat to Km measured after 1 hr in presence of NAD+ and trypsin by Michaelis-Menten kinetic model based fluorescence assay
[6] = test system: CC(=O)N[C@@H](CO)C(=O)N[C@@H](CC(C)C)C(=O)NCC(=O)N[C@@H](CCCCNC(=O)CCC(=O)O)C(=O)Nc1ccc2c(C)cc(=O)oc2c1; assay: as §2
[7] = test system: CC(=O)N[C@@H](Cc1cnc[nH]1)C(=O)N[C@@H](Cc1ccccc1)C(=O)N[C@@H](CO)C(=O)N[C@@H](CCCCNC(=O)CCC(=O)O)C(=O)Nc1ccc2c(C)cc(=O)oc2c1; assay: as §2
[8] = test system: Cc1cc(=O)oc2cc(NC(=O)[C@H](CCCCNC(=O)CCC(=O)O)NC(=O)OCc3ccccc3)ccc12; assay: as §2
[9] = test system: CC(=O)N[C@@H](CC(C)C)C(=O)NCC(=O)N[C@@H](CO)C(=O)N[C@@H](CCCCNC(=O)CCC(=O)O)C(=O)Nc1ccc2c(C)cc(=O)oc2c1; assay: (§3) Substrate activity at human N-terminal His-tagged SIRT5 (34 to 302 residues) expressed in Escherichia coli assessed as Km measured after 1 hr in presence of NAD+ and trypsin by Michaelis-Menten kinetic model based fluorescence assay
[10] = test system: CC(=O)N[C@@H](CO)C(=O)N[C@@H](CC(C)C)C(=O)NCC(=O)N[C@@H](CCCCNC(=O)CCC(=O)O)C(=O)Nc1ccc2c(C)cc(=O)oc2c1; assay: as §3
[11] = test system: CC(=O)N[C@@H](Cc1cnc[nH]1)C(=O)N[C@@H](Cc1ccccc1)C(=O)N[C@@H](CO)C(=O)N[C@@H](CCCCNC(=O)CCC(=O)O)C(=O)Nc1ccc2c(C)cc(=O)oc2c1; assay: as §3
[12] = test system: Cc1cc(=O)oc2cc(NC(=O)[C@H](CCCCNC(=O)CCC(=O)O)NC(=O)OCc3ccccc3)ccc12; assay: as §3
[13] = test system: CC(=O)N[C@@H](CC(C)C)C(=O)NCC(=O)N[C@@H](CO)C(=O)N[C@@H](CCCCNC(=O)CCC(=O)O)C(=O)Nc1ccc2c(C)cc(=O)oc2c1; assay: (§4) Substrate activity at human N-terminal His-tagged SIRT5 (34 to 302 residues) expressed in Escherichia coli assessed as Vmax measured after 1 hr in presence of NAD+ and trypsin by Michaelis-Menten kinetic model based fluorescence assay
[14] = test system: CC(=O)N[C@@H](CO)C(=O)N[C@@H](CC(C)C)C(=O)NCC(=O)N[C@@H](CCCCNC(=O)CCC(=O)O)C(=O)Nc1ccc2c(C)cc(=O)oc2c1; assay: as §4
[15] = test system: CC(=O)N[C@@H](Cc1cnc[nH]1)C(=O)N[C@@H](Cc1ccccc1)C(=O)N[C@@H](CO)C(=O)N[C@@H](CCCCNC(=O)CCC(=O)O)C(=O)Nc1ccc2c(C)cc(=O)oc2c1; assay: as §4
[16] = test system: Cc1cc(=O)oc2cc(NC(=O)[C@H](CCCCNC(=O)CCC(=O)O)NC(=O)OCc3ccccc3)ccc12; assay: as §4

Sequence of NAD-dependent protein deacylase sirtuin-5, mitochondrial (Homo sapiens), Q9NXA8 (Q9NXA8 whole entry): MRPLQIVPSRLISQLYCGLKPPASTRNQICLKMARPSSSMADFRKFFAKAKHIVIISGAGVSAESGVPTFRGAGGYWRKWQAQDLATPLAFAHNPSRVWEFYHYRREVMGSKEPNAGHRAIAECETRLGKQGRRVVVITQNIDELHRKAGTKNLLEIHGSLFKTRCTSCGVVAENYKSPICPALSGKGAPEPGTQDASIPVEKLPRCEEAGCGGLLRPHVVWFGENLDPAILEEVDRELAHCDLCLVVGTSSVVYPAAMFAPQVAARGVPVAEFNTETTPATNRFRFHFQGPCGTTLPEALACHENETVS

“NAD-dependent protein deacylase sirtuin-5, mitochondrial (Homo sapiens), Q9NXA8” was tested, and the kcat [1] was 38.8 10^-3/s, the kcat [2] was 45.5 10^-3/s and the kcat [3] was 46.9 10^-3/s. For the same substance, the kcat [4] was 2.6 10^-3/s, the kcat/Km [5] was 817 M⁻¹ s⁻¹ and the kcat/Km [6] was 1440 M⁻¹ s⁻¹. The kcat/Km [7] was 815 M⁻¹ s⁻¹, the kcat/Km [8] was 160 M⁻¹ s⁻¹ and the Km [9] was 47.6 µM. For the same substance, the Km [10] was 31.6 µM, the Km [11] was 57.5 µM and the Km [12] was 13.3 µM. The Vmax [13] was 116 nM/min, the Vmax [14] was 136 nM/min and the Vmax [15] was 141 nM/min. The Vmax [16] was 21.7 nM/min.
